The assay addresses CtBP2-Gluc-N / CtBP2-Gluc-C (CtBP-Gluc-PCA reporter) (human) (UniProt P56545). Briefly: split reporter (BiFC, NanoBiT); Gluc-PCA in 293 cells co-transfected with the Gluc-N and Gluc-C fusions, luminance read; MTOB treatment gave a dose-dependent reduction of the signal.

“CtBP2-Gluc-N / CtBP2-Gluc-C (CtBP-Gluc-PCA reporter), P56545 1-445 (natural protein; other documents disagree on this pair)”: the fold lower Gluc-PCA signal than the Zip-Zip dimer was 10 fold.

Values taken from paper PMC10158025.
